Where “and” joins values, the source holds several entries; their conditions need not be identical. Equal entries are not always repeated.

The data set deals with the molecule itself. As to the kind of experiment: native gel or EMSA.

B1: Stat5a (wild type), from Epo-stimulated 293T cells (natural protein)
chain: MAGWIQAQQLQGDALRQMQVLYGQHFPIEVRHYLAQWIESQPWDAIDLDNPQDRGQATQLLEGLVQELQKKAEHQVGEDGFLLKIKLGHYATQLQNTYDRCPMELVRCIRHILYNEQRLVREANNCSSPAGVLVDAMSQKHLQINQRFEELRLITQDTENELKKLQQTQEYFIIQYQESLRIQAQFAQLGQLNPQERMSRETALQQKQVSLETWLQREAQTLQQYRVELAEKHQKTLQLLRKQQTIILDDELIQWKRRQQLAGNGGPPEGSLDVLQSWCEKLAEIIWQNRQQIRRAEHLCQQLPIPGPVEEMLAEVNATITDIISALVTSTFIIEKQPPQVLKTQTKFAATVRLLVGGKLNVHMNPPQVKATIISEQQAKSLLKNENTRNECSGEILNNCCVMEYHQATGTLSAHFRNMSLKRIKRADRRGAESVTEEKFTVLFESQFSVGSNELVFQVKTLSLPVVVIVHGSQDHNATATVLWDNAFAEPGRVPFAVPDKVLWPQLCEALNMKFKAEVQSNRGLTKENLVFLAQKLFNISSNHLEDYNSMSVSWSQFNRENLPGWNYTFWQWFDGVMEVLKKHHKPHWNDGAILGFVNKQQAHDLLINKPDGTFLLRFSDSEIGGITIAWKFDSPDRNLWNLKPFTTRDFSIRSLADRLGDLNYLIYVFPDRPKDEVFAKYYTPVLAKAVDGYVKPQIKQVVPEFVNASTDAGASATYMDQAPSPVVCPQPHYNMYPPNPDPVLDQDGEFDLDESMDVARHVEELLRRPMDSLDARLSPPAGLFTSARSSLS
As for B1, the “stoichiometry N” value is 4 and 2.
